Results from publication PMC5994690, “Virulence Associated Gene 8 of Bordetella pertussis Enhances Contact System Activity by Inhibiting the Regulatory Function of Complement Regulator C1 Inhibitor” (Frontiers in Immunology, 2018).

B1: Recombinant his-tag passenger domain of virulence associated gene 8 (Vag8) of Bordetella pertussis (domain or fragment)
chain: VTAAQRIDGGAAFLGDVAIATTKASEHGINVTGRTAEVRVTGGTIRTSGNQAQGLRVGTENAPDNTALGASVFLQNLIIETSGTGALGVSVHEPQGGGGTRLSMSGTTVRTRGDDSFALQLSGPASATLNDVALETAGQQAPAVVLWQGAQLNAQGLVVQVNGAGVSAIHAQDAGSFTLSGSDITARGLEVAGIYVQEGMQGTLTGTRVTTQGDTAPALQVEDAGTHVSMNGGALSTSGANSPAAWLLAGGSAQFRDTVLRTVGEASHGVDVAAHSEVELAHAQVRADGQGAHGLVVTRSSAMVRAGSLVESTGDGAAALLESGHLTVDGSVVHGHGAAGLEVDGESNVSLLNGARLSSDQPTAIRLIDPRSVLNLDIKDRAQLLGDIAPEAQQPDGSPEQARVRVALADGGTWAGRTDGAVHTVRLLDRGVWTVTGDSRVAEVKLEGGTLAFAPPAQPKGAFKTLVATQGISGTGTIVMNAHLPSGTADVLVAPQGFGDRQVLVVNNTDDGTESGATKVPLIEDEQGHTAFTLGNMGGRVDAGARQYELTASEAQADKARTWQLTPTNEL
B2: Full length complement regulator C1 inhibitor (C1-INHFL), serum-derived (natural protein, UniProt P05155 23-500, looked up)
chain: NPNATSSSSQDPESLQDRGEGKVATTVISKMLFVEPILEVSSLPTTNSTTNSATKITANTTDEPTTQPTTEPTTQPTIQPTQPTTQLPTDSPTQPTTGSFCPGPVTLCSDLESHSTEAVLGDALVDFSLKLYHAFSAMKKVETNMAFSPFSIASLLTQVLLGAGENTKTNLESILSYPKDFTCVHQALKGFTTKGVTSVSQIFHSPDLAIRDTFVNASRTLYSSSPRVLSNNSDANLELINTWVAKNTNNKISRLLDSLPSDTRLVLLNAIYLSAKWKTTFDPKKTRMEPFHFKNSVIKVPMMNSKKYPVAHFIDQTLKAKVGQLQLSHNLSLVILVPQNLKHRLEDMEQALSPSVFKAIMEKLEMSKFQPTLLTLPRIKVTTSQDMLSIMEKLEFFDFSYDLNLCGLTEDPDLQVSAMQHQTVLELTETGVEAAAASAISVARTLLVFEVQQPFLFVLWDQQHKFPVFMGRVYDPRA
modifications: glycosylated (58 kDa protein/28 kDa sugar by SEC-MALS)
notes: Purified from serum (Complement Technology/Complement Technologies, Tyler, TX); source: bought: Complement Technology (serum-derived)

Columns and labels:
[1] = target: B2; assay: SPR; Biacore T200; Vag8 passenger domain immobilised by amine coupling on a CM5 chip; C1-INH 2.5-160 nM injected at 30 µL/min; 25°C, 10 mM HEPES pH 7.4, 150 mM NaCl, 3 mM EDTA, 0.005% P20; dissociation 300 s; details: both partners purified
[2] = target: B1; assay: SEC-MALS; S200 increase 10/300 column, 50 mM Tris pH 7.5, 150 mM NaCl, 0.4 mL/min; individual proteins and the complex; details: both partners purified

## B1
[1]
  Kd: ≤ 1 nM

## B2
[2]
  stoichiometry N: 1
